In article PMC7215387, “Comparison of Target Recognition by TRAF1 and TRAF2” (International Journal of Molecular Sciences, 2020):

Experiments:
TRAF2 [1] = target: T1, TRAF2 (Homo sapiens, UniProt Q12933); test: Complex formation assay by gel-filtration (size-exclusion) chromatography with TRAF2; type: binding; settings: Superdex 200 10/30, 20 mM Tris pH 8.0, 150 mM NaCl; 1 h at 4 °C; peak around 14 mL
T1 construct: TRAF2 TRAF domain (amino acid residues 305-501); 6xHis (C); made in house; host or cells: E. coli BL21 (DE3)
T1 sequence (Q12933 305-501): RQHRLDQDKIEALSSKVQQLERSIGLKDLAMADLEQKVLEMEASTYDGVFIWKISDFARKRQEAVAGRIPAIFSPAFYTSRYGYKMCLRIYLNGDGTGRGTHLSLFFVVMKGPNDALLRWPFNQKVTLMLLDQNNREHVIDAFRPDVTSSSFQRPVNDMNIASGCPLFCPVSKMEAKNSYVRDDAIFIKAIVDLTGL
Source text: TRADD is a well-known regulator of the TRAF function. The death domain located at the C-terminus of TRADD interacts with death-domain containing receptors and adaptor proteins including TNFR, receptor interacting protein 1 (RIP1) and Fas-associated death domain protein (FADD), while the N-terminal domain of TRADD (TRADD-N) interacts with the TRAF domain of TRAF2 (Figure 2a). Although several indirect interactions between TRAF1 and TRADD have been described, a direct interaction and direct analyses between TRAF1 and TRADD have not been reported. To directly study their interactions and binding properties, which may provide important clues for understanding TRAF-mediated signaling by TRADD, TRAFs and TRADD-N were purified, and initial interaction testing was performed by Native-PAGE. […] Although TRAF1 did interact with TRADD-N, this interaction was not as tight as with TRAF2 (Figure 2b). To further confirm this association, the interaction between the TRAFs and TRADD-N was further tested by size-exclusion chromatography. […]
Purified TRAF domains and TRADD-N proteins were mixed, incubated at 4 °C for 1 h, and concentrated to 4 to 5 mg/mL using a protein concentration kit (Millipore). […] Complex assembly was evaluated based on the positions of eluted protein peaks monitored at 280 nm followed by SDS-PAGE.

TRAF2 [2] = target: T1, TRAF2; test: Surface plasmon resonance (SPR), TRAF2; type: binding; settings: TRAF2 versus TRAF1
Procedure: The binding affinities between TRADD-N and TRAF1 or TRAF2 were further quantitatively analyzed using surface plasmon resonance (SPR) experiments (Figure 3a,b). For the SPR experiment, each purified 6xHis-tagged TRAF1 and TRAF2 was coupled to Ni-NTA sensor chips using a His-tag affinity system. Different concentrations of TRADD-N protein, from 0.39 to 3.125 μM, were analyzed for binding to TRAF1 or TRAF2. […] Given their interaction patterns and affinity differences in complex formation, we modeled the structure of the TRAF1:TRADD-N complex by docking TRADD-N to a previously solved TRAF1 structure based on the TRAF2:TRADD-N complex to better understand the affinity differences (Figure 3c,d). According to the previously determined structure of the TRAF2:TRADD-N complex, two distinct binding regions, Region I and II, were identified (Figure 3e). The specific residues from TRAF2 that contributed to the interaction in Region I were T401, H406, L471, and P474. The interaction-contributing residues on TRAF2 in Region II were D445, R448, P449, D450, S454 and G468. All residues in TRAF2 that participated in the interaction with TRADD-N were conserved in TRAF1, except for S454, which was replaced by alanine in TRAF1 (Figure 3f). The side chain of S454 in TRAF2 formed a stable hydrogen bond with the side chain of Q143 on TRADD-N and contributed to the stable interaction between these two proteins. […]

affinity of TRAF2 for TRADD-N relative to that of TRAF1 (TRAF2 [2]): four times higher
B1: TRADD-N: N-terminal domain of TRADD (TRADD-N, amino acid residues 1-163) (protein)
chain: MAAGQNGHEEWVGSAYLFVESSLDKVVLSDAYAHPQQKVAVYRALQAALAESGGSPDVLQMLKIHRSDPQLIVQLRFCGRQPCGRFLRAYREGALRAALQRSLAAALAQHSVPLQLELRAGAERLDALLADEERCLSCILAQQPDRLRDEELAELEDALRNLK
modifications: left off: His6 (from the vector pET24a), C-terminal, state not stated
co-migration with TRAF2 in size-exclusion chromatography / SDS-PAGE (TRAF2 [1]): co-migrated well with TRADD-N at similar intensities
